# Measurements from patent US20200392233A1 (ACCELERON PHARMA, published 2020).
# Numbering of substitutions follows the chain as printed.
# T1: rat Alk7-Fc comprising protein (rat, UniProt P70539 26-113)
# T1 construct: not shown: Fc portion and any linker of the Alk7-Fc comprising protein are not described
# T1 sequence: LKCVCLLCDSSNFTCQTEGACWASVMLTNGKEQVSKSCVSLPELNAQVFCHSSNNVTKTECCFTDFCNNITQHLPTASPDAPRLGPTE
# B1: C03 (antibody, V domains shown)
# VH: QLQLQESGPGLVKPSETLSLTCTVSGGSISSSAYYWAWIRQPPGKGLEWIGSIYLSGSTTYNPSLKSRVTISVDTSKNQFSLKLSSVTAADTAVYYCARDGRYQSRSPDYYYGMDVWGQGTTVTVSS
# VL: EIVLTQSPGTLSLSPGERATLSCKASQSVSSSYLAWYQQKPGQAPRLLIYGAFSRANGIPDRFSGSGSGTDFTLTISRLEPEDFAVYYCQQLVSYPFTFGGGTKVEIK
# notes: also called mAb C03; ALK7 mAb C03
# B2: G05 (antibody, V domains shown)
# VH: QVQLVQSGAEVKKPGSSVKVSCKASGGTFSGQAISWVRQAPGQGLEWMGGIIPSFGTARYAQKFQGRVTITADESTSTAYMELSSLRSEDTAVYYCARTPYYDSSGYLDVWGQGTMVTVSS
# VL: DIQMTQSPSSLSASVGDRVTITCQASHDIDNYLNWYQQKPGKAPKLLIYYASNLKTGVPSRFSGSGSGTDFTFTISSLQPEDIATYYCQQSRASPPTFGGGTKVEIK
# notes: also called mAb G05; ALK7 mAb G05
# B3: L02 (antibody, V domains shown)
# VH: QVQLVQSGAEVKKPGASVKVSCKASGYTFAGYNMHWVRQAPGQGLEWVGIINPNSGWTNYAQKFQGRVTMTRDTSVSAAYMELSRLRSDDTAVYYCARDPVGARYEVFDYWGQGTLVTVSS
# VL: EIVMTQSPATLSVSPGERATLSCRASQSVSSALAWYQQKPGQAPRLLIYSAFTRASGIPARFSGSGSGTEFTLTISSLQSEDFAVYYCQQAWAFPLTFGGGTKVEIK
# notes: also called mAb L02
# B4: K02 (antibody, V domains shown)
# VH: QVQLVQSGAEVKKPGSSVKVSCKASGGTFSSSAIGWVRQAPGQGLEWMGGIWPIFGTALYAQKFQGRVTITADESTSTAYMELSSLRSEDTAVYYCARDPREYIHVFDIWGQGTMVTVSS
# VL: DIQMTQSPSSLSASVGDRVTITCRASQSISSYLNWYQQKPGKAPKLLIYGASSLQSGVPSRFSGSGSGTDFTLTISSLQPEDFATYYCQQAYSFPWTFGGGIKVEIK
# notes: also called mAb K02; KO2
# B5: J02 (antibody, V domains shown)
# VH: EVQLLESGGGLVQPGGSLRLSCAASGFTFSVYAMSWVRQAPGKGLEWVSAISGSGDSTVYADSVKGRFTISRDNSKNTLYLQMNSLRAEDTAVYYCAKPSYQPIYWGQGTLVTVSS
# VL: B4 VL with L11V, S28G, Y32W, N34A, G50A, Y92A, F94Y, W96L, I102T
# notes: also called mAb J02; ALK7 mAb J02
# B6: J01 (antibody, V domains shown)
# VH: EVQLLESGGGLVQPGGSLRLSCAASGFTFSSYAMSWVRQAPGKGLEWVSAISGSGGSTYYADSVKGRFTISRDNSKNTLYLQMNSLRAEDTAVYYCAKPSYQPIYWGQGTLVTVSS
# VL: B4 VL with L11V, S28G, Y32W, N34A, G50A, Y92A, F94Y, W96L, I102T
# notes: also called antibody J01
# Target: T2, ALK7-Fc comprising protein
# T2 construct: It is probably the human protein
# T2 sequence (Q8NER5 22-113): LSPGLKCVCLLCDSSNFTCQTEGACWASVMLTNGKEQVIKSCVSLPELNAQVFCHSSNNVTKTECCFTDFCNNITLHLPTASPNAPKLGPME
# Assay: SPR (Biacore T100/T200) at 25 °C, antibody captured on FAB chip, ALK7-Fc analyte, 1:1 fit
# Procedure: (§1) Experiments were performed using a Biacore T100/T200 biosensor (Biacore/GE Healthcare) at 25 and 37° C. ALK7 antibodies were captured on custom made FAB chip. A concentration series of ALK7-Fc comprising protein was injected over the flow cells at a flow rate of […]. To obtain kinetic rate constants the corrected data were fit to a 1:1 interaction model using BiaEvaluation software (GE Healthcare). The equilibrium binding constant KD was determined by the ratio of binding rate constants kd/ka.
Kd [nM],koff [s⁻¹],kon [M⁻¹ s⁻¹],Binder
0.33,1.27e-05,38300,B1
0.87,2.59e-05,29900,B2
0.44,1.21e-05,27400,B3
12.4,0.000291,23500,B4
5.33,0.000126,23600,B5

# Target: T1, rat Alk7-Fc comprising protein
# Assay: SPR (Biacore T100/T200), antibody captured on FAB chip, Alk7-Fc analyte, 1:1 fit
# Procedure: as §1
row,koff [s⁻¹],Binder
1,0.000478,B6
